Target: BrvH, flavin-dependent halogenase (predicted gene 12 of the Botany Bay metagenome) (Brevundimonas BAL3 (most likely; gene found in the Botany Bay metagenome))
Assay: SEC; 16/60 Superdex 200, 10 mM Tris 20 mM NaCl pH 8, 4 °C, flow rate 1 mL/min; last step of the purification for crystallisation

stoichiometry N: 2
Substance: BrvH, flavin-dependent halogenase (predicted gene 12 of the Botany Bay metagenome) (enzyme)
